Test results reported in the nanobody polyreactivity screen of Harvey et al. (2022).

Experiment: yeast display, Sf9 membrane polyspecificity reagent, FACS + sequencing; frameworks hold sequencing errors
Procedure, shortened: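 A nanobody's polyreactivity label depends on the gate it was sorted from. Yeast display cells were stained with 10% biotinylated, detergent-solubilized Sf9 membrane reagent for 1 hour at 4 °C, enriched on streptavidin microbeads and sorted by FACS. The low and high (top ~1%) gates were set on anti-HA fluorescence for expression and streptavidin fluorescence for reagent binding.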

Sequence	polyreactivity (PSR sort gate)
QVQLVESGGGLVQAGGSLRLSCAASGITFYAYVMGWYRQAPGKERELVAAISGGGSTYYADSVKGRFTISRDNAKNTVYLQMNSLKPEDTAVYYCNAELSFWDLGYDYWGQGTQVTVSS	low polyreactivity
QVQLVESGGGLVQAGGSLRLSCAASGFIFDSYVMGWYRQAPGKEREMVAAISSGGASTYYADSVKGRFTISRDNAKNTVYLQMNSLKPEDTAVYYCAAEYLYQPWGVDYDYWGQGSQVTVSS	high polyreactivity
QVQLVESGGGLVQAGGSLRLSCAASGFILDYNTMGWYRQAPGKERELVAAISSSGDTTYYADSVKGRFTISRDNAKNTVYLQMNSLKPEDTAVYYCGREYGDGYEYWGQGTQVTVSS	low polyreactivity
QVQLVESGGGLVQAGGSLRLSCAASGSSKLRLWDGIDRRLGKKGSWLPLFVLVVLRNYADSVKGRFTISRDNAKNTVYLQMNSLKPEDTAVYYCAATPIGSGGWGDYWGQGTQVTVSS	low polyreactivity
QVQLVESGGGLVQAGGSLRLSCAASGRTSSWYVMGWYRQAPGKERELVAAISGSGGSTYYADSVKGRFTISRDNAKNTVYLQMNSLKPEDTAVYYCAADSWSYSGYNYWGQGTQVTVSS	high polyreactivity
QVQLVESGGGLVQAGGSLRLSCAASGFTFYPYTMGWYRQAPGKERELVAVITYDSTYYADSVKGRFTISRDNAKNTVYLQMNSLKPEDTAVYYCNATGYSVSRSAYWYGWYDYWGQGTQVTVSS	low polyreactivity
QVQLVESGGGLVQAGGSLRLSCAASGFTFRKYVMGWYRQAPGKERELVAGISRSGSRTYYADSVKGRFTISRDNAKNTVYLQMNSLKPEDTAVYYCAASRYGKNGKYHYWGQGTQVTVSS	high polyreactivity
QVQLVESGGCLVQAGGSLRLSCAASGSTFENYAMGWYRPAPGKERELVATISIDGRTNYADSVKGRFTISRDNAKNTVFLQMNSLKPEDTGVYYCAARPYWRHRYDYWGQGTQVTVSS	low polyreactivity
QVQLVESGGGLVQAGGSLRLSCAASGSIFGGYAMGWYRPAPGKERELVAAIDESGGSTYYADSVKGRFTISRDNAKNTVYLQMNSLKPEDTAVYYCLVFRDDSGPGDYYYWGQGTQVTVSS	low polyreactivity
QVQLVESGGGLVQAGGSLRLSCAASGLTFVQYAMGWYRQAPGKERELVAAISRNGGSTYYADSVKGRFTISRDNAKNTVYLQMNSLKPEDTAVYYCATRISYPWWAYDYWGQGTQVTVSS	high polyreactivity
QVQLVESGGGLVQAGGSLRLSCAASGTIFVPYAMGWYRQAPGKERELVAVITSGGSTYYADSVKGRFTISRDNAKNTVYLQMNSLNPEDTAVYYCIADLYYVWSTLSQFDYWGQGTHVTVSS	low polyreactivity
QVQLQESDGGLVQAGGSLRLTCAASGSISPQYYMGWYRQAPGQEREFVAISKGTTTYYADSVKGRLTISRVNAKNTVYLQMNSLKPEDTAVYCCAAGRWLQKVHAYWDQGTQVTVSS	low polyreactivity
QVQLVESGGGLVQAGGSLRLSCDASGLTFRYYAMVWYRQAHGKERELDATITRAGRTNYADSVKGRFTISRDNAKNTVYFQMNRLNPEDTAVYYCNAKQSGKYPRVVGYDYWGQGTQVTVSS	high polyreactivity
QVQLVESGGGLVQAGGSLRLSCAASGRTFSPYMGWSRQAPGKERELVAAISKSGGRTYYADSVKWSFTISRDNAKNTVYLQMNSLQPEDTAVYYCATSGNNYYYALYGYWVQGTQVTVSS	low polyreactivity
QVQLGESGGGLVQAGGSLRLSCAASGRTFLKNALGWYRPAPGKERELVAAITSGGSTNYADSVKGRFTISRDNAKNTVYFQMNCLKPEDTAVYYCAAEYTYGSPYDYWGQGTQVTVSS	low polyreactivity
QVQLVESGGGLVQAGGSLRLSCAASGITFNLYAMGWYRQAPGKERELVAGITGGGSTYYADSVKGRFTISRDNAKNTVYLQMNSLTPEDTAVYYSTARRLGARYRGYYWGQGTQVTVSS	high polyreactivity
QVQLVESGGGLVQAGGSLRLSCAASGRIFRHNTMGWYRQAPGNESELVAGITASGGDTYYADSVTGRFTISRDNAKNTVYLQMNSLNPEDTAVYDCATSQYGYRSWPGLYYWGQGTQVTVSS	low polyreactivity
QVQLVESGGGLVQAGGSLRLSCAASGSTFYYNAMGWYRQAPGKERELVAAISGSGGSTYYADSVKGRFTISRDNAKNTVYLQMNSLKPEDTAVYYCAALYGPGREYDYWGQGTQVTVSS	low polyreactivity
QVQLVESGGGLVQAGGSLRLSCAASGSTFQFYAMGWYRQAPGKERELVAAIDGSDGDTYYADSVKGRFTISRDNAKNTVYLQMNSLKPEDTAVYYCNADRDALVGYDYDYWGQGTQVTVSS	low polyreactivity
QVQLVESGGGLVQAGGSLRLSCDASGSIFNRNVMGWYRQAHGKERELVAVITGSGDSTFYADSVKGRFTISRDNAKNTVYLQRNSLIPDDTAVYYCNARLVSGGYYYWGLGTQVTVSS	low polyreactivity
QFQLVESGGGLVQAGGSLRLSCAASGRIFYKYVMGWYRQAPGKERELVAAINRSGGTTYYADSVKGRFTISRDNAKNTVYLQMNSLKPEDTAVYYCNATLPDYWPYYYYQGGDDYWGQGTQVTVSS	low polyreactivity
QVQLQERAGGLVQAGGSLRQSCAASGYRSLAQTIGWYRQAPGKEREFVASIALGSSTYYTDSVKGSFTISRDNAKTTVYLQMNSLKPEATAVYYCNARDDVYLITPYFLVYVNLDYWGQGTQVTVSS	low polyreactivity

Sequence	polyreactivity (PSR sort gate)
QVQLVESGGGLVQAGGSLRLSCAASGFIFVKNAMGWYRQAPGKERELVAVISTRGGRTYYADSVKGRFTISRDNAKNTVYLQMNSLKPEDTAVYYCAALYWYSRSSWDYDYWGQGTQVTVSS	high polyreactivity
QVQLVESGGGLVQAGGSLRLSCAASGFTFYLYAMGWYRQAPGKERELVASISSGGRTYYADSVKGRFTISRDNAKNTVYLQMNSLKPEDTAVYYCAVSPYSRRKYEYYYWGQGTQVTVSS	high polyreactivity
QVQLVESGGGLVQAGGSLRLSCAASGFIFLTNSMGWYRQAPGKERELVAAIRWSDDGTYYADSVKGRFTISRDNAKNTVYLQMNSLKPEDTEVYYCAKEVRNTVTTTGQGTQVTVSS	low polyreactivity
QVQLVESGGGLVQAGGSLRLSCAASGSTFGLYVMGWYRQAPGQERELVAAISRRGGSTYYADSVKGRFTSSRDNAKNTVYLQMNSLKPEDTAVYYCNTYYRGGPYDVAYDYWGQGTQVTVSS	high polyreactivity
HVQLQESGGGLVQAGGSLRLICAASGNIVDDDIMGWYRQAPGKEREIVASITDGGSTNYADSLKGRFTISRDNAKNTVYQQMNILIREVTAVYYCAAIAYPDIPTYFVYDSDSFYWGQGTQETVSS	high polyreactivity
QVQLVESGGGLVQAGGRLRLSCAASGIIFKYNAMGWYIQAPGKEREFVAAITGSGGSTYYADSVKGRFTISRDNAKNTVYLQMNSLKPEDTAVYYCARPQWRDWYGYWGQGTQVTVSS	low polyreactivity
QVQLVESGGGLVQAGGSLRLSCAASGYIFKVNSMGWYRQAPGKERELVADISRNSGSTRYADSVKGRFTISRDNAKNTVYLQMNSLKPDDTAVYYFAADGRYWVKPGSPWDRSRYDYWGQGTQVTVSS	low polyreactivity
QVQLEESGGGLVQAGGRLRLSCDASGITLLLKAMGWYRQAPGKERELFAAISEGGGSTYYADSVKGRFTISRDNAKNTVYLQMNSLTPEDTAVYYCAADEYTPDYGQGYDYWGQGTQVTVSS	low polyreactivity
QVQLVESGGGLVQAGGSLRLSCAASGRTFFYYKMGLSRQAPGKESELVATISWRGGSTYYADSVKGRFTISRDNAKNTVYLHINSLNPEDTSVFYCAARYRSRFDSWGQGSQVTVSS	high polyreactivity
QVQLVESGGGLVQAGGSLRLSCAASGSIFVYKAMGWYRQAPGKERELVAGITFIGGSTYYADSVKGRFTISRDNAKNTVYLQMNCLKPEDTAVYYCNADVAPGIFYGYDSWGQGTQVTVSS	low polyreactivity
QVQLVESGGGLVQAGGSLRLSCAASGSIFWGNAMGWYRQAPGKERELVAAIDWSGGSTYYADSVKGRFTISRDNAKNTVYLQMHSLKPEDTAVYYCAASGRYDYDYWGQGTQVTVSS	low polyreactivity
QVQLVESGGGLVQAGGSLRLSCAASGTISAYAMGWYRQAPGKERELVAAITRTGGSTYYADSVKGRFTISRDNAKNTVYLQMNSLKPEDTAVYYCATEFRYREFYYWGQGTQVTVSS	high polyreactivity
QVQLVESGGGLVQAGGSLRLSCAASGGTLFQNAMGWYRQAPGKERELVATIRVSGGITYYADSVKGRFTISRDNAKNTVYLQMNSLKPEDTAVYYCAKDSADSRAVGDVLTFDYWGQGTQVTVSS	low polyreactivity
QVQLVESGGGLVQAGGSLRLSCAASGSIFPYYAMGWYRPAPGKERELVAGITSGTRTNYADSVKGRFTISRDNAKNTVYLQMNSLKPEDTAVYYCAAYYRAYRRDYYWGQGTQVTVSS	high polyreactivity
QFQLVESGGGLVQAGGSLRLSCAASGSTFYTNAMGWYRQAPGKERELVAAITSRTGSTYYADSVKGRFTISRDNAKNTVYLQMNSLKPEDTAVYYCAADIYDWGGHYEYWGQGTQVTVSS	high polyreactivity
QVQLVESGGGVVQAGGSLRLSCAASGSTFLPYAMGWYRQAPGKERELVAAITWRTGSTYYADSVKGRFTSSRDNAQNTVYLQMNSLKPEDTAVYYCNAKQRGKFDYWGQGTQVTVSS	low polyreactivity
QVQLVESGGGLVQAGGSLRLSCAASGSIFWSNARGWYRQAPGKERELVATIDDDVGSTYYADSVKGRFTISRDNAKNTVYLQMNSLKPEDTAVYYCAADSVYYVMPYEYWGQGTQVTVSS	low polyreactivity
QVQLVESGGGLVQAGGSLRLSCAASGFTFLYYAMGWYRQAPGKERELVAAISASSDRTYYADSVKGRFTISRDNAMNTVYLQMNSLKPDDTAVYYCAAYNSRVGGYRGYGYWGQGTLVTVSS	high polyreactivity
QVQLVESGGGLVQAGGSLRLSCAASGRIFHQYAIGWSRPAPGKERELVAAISSGGGSTYYADSVKGRFTISRDNAKNTVYLQMNSLKPEDNAVYYCAAVYDYDRGVNYWGQGTQVTVSS	high polyreactivity
QVQLVESGGGLVQAGGSLRLSCAASGRIFIRYAMGWYRQAPGKERELVAVITTGGSTNADSVKGRFTISRDNAKNTVYLQMNSVKPEDTAVYYCNAKVRVYTRGYFRYWYDYWGQGTQVTVSS	high polyreactivity
QVQLVESGGGLVQAGGSLRLSCAASGFTFDFYAMGWYRQAPGKERELVAAINWSGSSTYYADSVKGRFTISRDNAKNTVYLQMNSLKPEDTAVYYCAAQVYYTLFPDVYTMYYWGQGTQVTVSS	high polyreactivity
